From paper PMC8509808, “Characterization of the Chimeric PriB-SSBc Protein” (International Journal of Molecular Sciences, 2021)

Experiments:
Conditions in all cases: protein: recombinant; tags: none (tag-free); chain copies: 2; label: 5'-32P
[1] = molecular target: T1, PriB-SSBc (chimera KpPriB 1-98 fused to KpSSB 112-174) (Klebsiella pneumoniae, UniProt A6THB2 1-98+A6TGW7:112-174, internal_change); experiment: EMSA; monomer conc.; 1 complex; EMSA: 20 mM Tris-HCl pH 8.0, 100 mM NaCl, 25 C, 30 min, 1.7 nM 32P-ssDNA; 8% native PAGE in TBE at 4 C
[2] = molecular target: T1, PriB-SSBc (chimera KpPriB 1-98 fused to …); experiment: EMSA; monomer conc.; 2 complexes; EMSA: 20 mM Tris-HCl pH 8.0, 100 mM NaCl, 25 C, 30 min, 1.7 nM 32P-ssDNA; 8% native PAGE in TBE at 4 C
[3] = molecular target: T1, PriB-SSBc (chimera KpPriB 1-98 fused to …); experiment: EMSA; ND; up to 5 uM protein; EMSA: 20 mM Tris-HCl pH 8.0, 100 mM NaCl, 25 C, 30 min, 1.7 nM 32P-ssDNA; 8% native PAGE in TBE at 4 C

Binder	apparent K (half saturation) [1]	further results
TTTTTTTTTTTTTTTTTTTT (ssDNA) [dT20]	2120 ± 180 nM	
TTTTTTTTTTTTTTTTTTTTTTTTT (ssDNA) [dT25]	1150 ± 120 nM	
TTTTTTTTTTTTTTTTTTTTTTTTTTTTTTTTTTTTTTTTTTTTTTTTTT (ssDNA) [dT50]	290 ± 20 nM	
dT55 (ssDNA) DNA: TTTTTTTTTTTTTTTTTTTTTTTTTTTTTTTTTTTTTTTTTTTTTTTTTTTTTTT		apparent K (half saturation) [2]: 330 ± 30 nM
dT60 (ssDNA) DNA: TTTTTTTTTTTTTTTTTTTTTTTTTTTTTTTTTTTTTTTTTTTTTTTTTTTTTTTTTTTT		apparent K (half saturation) [2]: 230 ± 20 nM
TTTTTTTTTTTTTTT (ssDNA) [dT15]		binding result [3]: no binding
TTTTTTTTTTTTTTTTTTTTTTTTTTTTTT (ssDNA) [dT30]	940 ± 80 nM	
TTTTTTTTTTTTTTTTTTTTTTTTTTTTTTTTTTTTTTTT (ssDNA) [dT40]	840 ± 60 nM	
